Assay results as given in the supplement of paper PMC9112550, “Optimization of the antimicrobial peptide Bac7 by deep mutational scanning” (BMC Biology, 2022).

tested on: Escherichia coli TOP10; assay: shrunken log2 fold change of peptide-encoding DNA abundance (4.5 h post-induction vs induction); higher = less antimicrobial activity (less host growth inhibition); settings: time post-induction: 4.5 h; library: site-saturation at positions 5, 18, 19, 20
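Note: peptides expressed intracellularly from a pBAD plasmid library in pooled LB shake-flask culture, induced with 0.3% L-arabinose, DNA abundance read by NGS, three biological replicates, DESeq2 with apeglm shrinkage.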

Point of comparison: RRIRPRPPRLPRPRPRPAKAPRP, “shrunken log2 fold change” value -0.0289. Against it:
- RRIRVRPPRLPRPRPRPVSQPRP — within 0.2 log units, 0.051
- RRIRSRPPRLPRPRPRPQVIPRP — within 0.2 log units, 0.00733
- RRIRIRPPRLPRPRPRPRRGPRP — higher, 0.184
- RRIRYRPPRLPRPRPRPGLWPRP — within 0.2 log units, 0.032
- RRIRMRPPRLPRPRPRPMKIPRP — within 0.2 log units, -0.00146
- RRIRLRPPRLPRPRPRPVCIPRP — lower, -0.498
- RRIRKRPPRLPRPRPRPWMDPRP — within 0.2 log units, 0.0169
- RRIRGRPPRLPRPRPRPQHNPRP — within 0.2 log units, -0.186
- RRIRKRPPRLPRPRPRPIGCPRP — within 0.2 log units, -0.000243
- RRIRARPPRLPRPRPRPQYGPRP — lower, -0.442
- RRIRNRPPRLPRPRPRPCLLPRP — lower, -0.414
- RRIRRRPPRLPRPRPRPYPWPRP — within 0.2 log units, -0.101
- RRIRWRPPRLPRPRPRPIETPRP — within 0.2 log units, 0.0333
- RRIRRRPPRLPRPRPRPFQGPRP — within 0.2 log units, -0.0527
- RRIRKRPPRLPRPRPRPMCYPRP — within 0.2 log units, -0.00324
- RRIRFRPPRLPRPRPRPWKCPRP — within 0.2 log units, 0.0039
- RRIRCRPPRLPRPRPRPMSSPRP — within 0.2 log units, 0.0481
- RRIRPRPPRLPRPRPRPSARPRP — higher, 0.186
- RRIRSRPPRLPRPRPRPYWQPRP — lower, -0.551
- RRIRIRPPRLPRPRPRPMWPPRP — within 0.2 log units, 0.128
- RRIRIRPPRLPRPRPRPQECPRP — within 0.2 log units, -0.0195
- RRIRKRPPRLPRPRPRPDWVPRP — within 0.2 log units, 0.0285
- RRIRSRPPRLPRPRPRPCAWPRP — within 0.2 log units, -0.035
- RRIRKRPPRLPRPRPRPISDPRP — within 0.2 log units, -0.0768
- RRIRDRPPRLPRPRPRPMFHPRP — within 0.2 log units, -0.0543
- RRIRTRPPRLPRPRPRPTETPRP — higher, 0.171
- RRIRQRPPRLPRPRPRPRVGPRP — higher, 0.71
- RRIRVRPPRLPRPRPRPVRRPRP — higher, 2.95
- RRIRRRPPRLPRPRPRPIHRPRP — within 0.2 log units, -0.041
- RRIRERPPRLPRPRPRPCHGPRP — lower, -0.989
- RRIRCRPPRLPRPRPRPSLPPRP — within 0.2 log units, -0.0253
- RRIRPRPPRLPRPRPRPSKYPRP — lower, -0.528
- RRIRTRPPRLPRPRPRPTAEPRP — higher, 0.458
- RRIRPRPPRLPRPRPRPKPQPRP — higher, 0.397
- RRIRVRPPRLPRPRPRPYAPPRP — within 0.2 log units, -0.0528
- RRIRPRPPRLPRPRPRPLHEPRP — higher, 0.236
- RRIRTRPPRLPRPRPRPNASPRP — within 0.2 log units, -0.0378
- RRIRWRPPRLPRPRPRPYCCPRP — lower, -0.569
- RRIRLRPPRLPRPRPRPHGKPRP — within 0.2 log units, -0.191
- RRIRIRPPRLPRPRPRPLTNPRP — lower, -0.572
- RRIRKRPPRLPRPRPRPHRGPRP — within 0.2 log units, 0.0594
- RRIRRRPPRLPRPRPRPNHGPRP — within 0.2 log units, -0.0793
- RRIRVRPPRLPRPRPRPFDWPRP — within 0.2 log units, -0.103
- RRIRCRPPRLPRPRPRPNEKPRP — within 0.2 log units, -0.00225
- RRIRVRPPRLPRPRPRPFMEPRP — lower, -0.265
- RRIRWRPPRLPRPRPRPELNPRP — higher, 0.259
- RRIRKRPPRLPRPRPRPEVIPRP — within 0.2 log units, -0.00256
- RRIRRRPPRLPRPRPRPFIRPRP — lower, -0.326
- RRIRSRPPRLPRPRPRPRVKPRP — within 0.2 log units, -0.224
- RRIRYRPPRLPRPRPRPPACPRP — within 0.2 log units, -0.146
- RRIRPRPPRLPRPRPRPTAPPRP — higher, 0.528
- RRIRWRPPRLPRPRPRPEQSPRP — higher, 0.678
- RRIRMRPPRLPRPRPRPVFKPRP — within 0.2 log units, -0.111
- RRIRTRPPRLPRPRPRPCPDPRP — lower, -0.283
- RRIRDRPPRLPRPRPRPTVSPRP — higher, 0.853
- RRIRSRPPRLPRPRPRPGDEPRP — within 0.2 log units, 0.0674
- RRIRKRPPRLPRPRPRPLMCPRP — within 0.2 log units, -0.122
- RRIRIRPPRLPRPRPRPNYVPRP — within 0.2 log units, -0.115
- RRIRSRPPRLPRPRPRPGEWPRP — within 0.2 log units, -0.0156
- RRIRIRPPRLPRPRPRPSFSPRP — lower, -0.357
- RRIRMRPPRLPRPRPRPLFKPRP — within 0.2 log units, -0.0689
- RRIRLRPPRLPRPRPRPFNGPRP — within 0.2 log units, -0.0434
- RRIRTRPPRLPRPRPRPRCLPRP — within 0.2 log units, -0.0645
- RRIRIRPPRLPRPRPRPSPIPRP — lower, -0.574
- RRIRMRPPRLPRPRPRPYDWPRP — within 0.2 log units, -0.133
- RRIRMRPPRLPRPRPRPKQFPRP — higher, 0.255
- RRIRSRPPRLPRPRPRPKYPPRP — within 0.2 log units, -0.186
- RRIRPRPPRLPRPRPRPGMAPRP — higher, 0.204
- RRIRERPPRLPRPRPRPQDMPRP — lower, -0.492
- RRIRIRPPRLPRPRPRPRYNPRP — lower, -0.588
- RRIRTRPPRLPRPRPRPLAVPRP — within 0.2 log units, -0.0185
- RRIRLRPPRLPRPRPRPWHMPRP — within 0.2 log units, 0.041
- RRIRLRPPRLPRPRPRPRDLPRP — within 0.2 log units, 0.0268
- RRIRWRPPRLPRPRPRPADRPRP — within 0.2 log units, 0.0754
- RRIRVRPPRLPRPRPRPCGSPRP — within 0.2 log units, -0.225
- RRIRVRPPRLPRPRPRPGGLPRP — within 0.2 log units, 0.00797
- RRIRRRPPRLPRPRPRPPQDPRP — higher, 1.39
- RRIRLRPPRLPRPRPRPKQPPRP — within 0.2 log units, 0.119
- RRIRWRPPRLPRPRPRPKPSPRP — higher, 0.512
- RRIRWRPPRLPRPRPRPFNKPRP — lower, -0.441
- RRIRRRPPRLPRPRPRPDCPPRP — higher, 0.4
- RRIRERPPRLPRPRPRPDSKPRP — lower, -0.312
- RRIRARPPRLPRPRPRPIRPPRP — higher, 0.237
- RRIRRRPPRLPRPRPRPVRVPRP — higher, 0.791
- RRIRPRPPRLPRPRPRPEQGPRP — within 0.2 log units, -0.178
- RRIRARPPRLPRPRPRPRDAPRP — higher, 0.91
- RRIRYRPPRLPRPRPRPYTLPRP — within 0.2 log units, -0.213
- RRIRKRPPRLPRPRPRPITEPRP — within 0.2 log units, -0.147
- RRIRGRPPRLPRPRPRPDCIPRP — higher, 0.799
- RRIRDRPPRLPRPRPRPWNYPRP — within 0.2 log units, -0.0121
- RRIRERPPRLPRPRPRPHAGPRP — within 0.2 log units, 0.0727
- RRIRARPPRLPRPRPRPCFCPRP — higher, 0.25
- RRIRHRPPRLPRPRPRPELPPRP — within 0.2 log units, -0.056
- RRIRHRPPRLPRPRPRPNMMPRP — lower, -0.263
- RRIRCRPPRLPRPRPRPQPVPRP — higher, 0.399
- RRIRFRPPRLPRPRPRPWMHPRP — within 0.2 log units, -0.0282
- RRIRLRPPRLPRPRPRPFIYPRP — lower, -0.504
- RRIRARPPRLPRPRPRPVGAPRP — higher, 0.731
- RRIRDRPPRLPRPRPRPHWPPRP — higher, 0.197
- RRIRFRPPRLPRPRPRPINWPRP — within 0.2 log units, -0.113
- RRIRKRPPRLPRPRPRPAMYPRP — higher, 0.256
- RRIRMRPPRLPRPRPRPPNGPRP — higher, 0.234
- RRIRARPPRLPRPRPRPPFKPRP — higher, 0.368
- RRIRTRPPRLPRPRPRPHCCPRP — within 0.2 log units, 0.142
- RRIRRRPPRLPRPRPRPMFVPRP — within 0.2 log units, -0.0498
- RRIRHRPPRLPRPRPRPPAHPRP — within 0.2 log units, 0.0763
- RRIRLRPPRLPRPRPRPFSQPRP — within 0.2 log units, -0.0811
- RRIRQRPPRLPRPRPRPAKKPRP — within 0.2 log units, -0.0522
- RRIRTRPPRLPRPRPRPCMPPRP — within 0.2 log units, -0.143
- RRIRLRPPRLPRPRPRPGCGPRP — higher, 0.49
- RRIRFRPPRLPRPRPRPPFKPRP — within 0.2 log units, -0.183
- RRIRWRPPRLPRPRPRPFFRPRP — higher, 0.33
- RRIRPRPPRLPRPRPRPCMCPRP — within 0.2 log units, -0.0305
- RRIRARPPRLPRPRPRPHLLPRP — within 0.2 log units, -0.0598
- RRIRGRPPRLPRPRPRPFLAPRP — higher, 0.525
- RRIRARPPRLPRPRPRPIIKPRP — within 0.2 log units, -0.09
- RRIRSRPPRLPRPRPRPVVLPRP — within 0.2 log units, 0.124
- RRIRPRPPRLPRPRPRPSLFPRP — lower, -0.344
- RRIRLRPPRLPRPRPRPGLEPRP — within 0.2 log units, 0.11
- RRIRSRPPRLPRPRPRPRQYPRP — lower, -0.274
- RRIRMRPPRLPRPRPRPIADPRP — within 0.2 log units, -0.00229
- RRIRYRPPRLPRPRPRPALLPRP — within 0.2 log units, -0.0984
- RRIRVRPPRLPRPRPRPPQLPRP — within 0.2 log units, 0.0208
- RRIRVRPPRLPRPRPRPQNMPRP — lower, -0.465
- RRIRCRPPRLPRPRPRPWCKPRP — within 0.2 log units, 0.145
- RRIRGRPPRLPRPRPRPHDRPRP — within 0.2 log units, -0.0826
- RRIRTRPPRLPRPRPRPGLGPRP — higher, 0.466
- RRIRLRPPRLPRPRPRPNVWPRP — higher, 0.346
- RRIRSRPPRLPRPRPRPMVCPRP — higher, 0.188
- RRIRERPPRLPRPRPRPEGMPRP — within 0.2 log units, 0.046
- RRIRSRPPRLPRPRPRPWCEPRP — lower, -0.291
- RRIRTRPPRLPRPRPRPRKVPRP — lower, -0.295
- RRIRDRPPRLPRPRPRPGNKPRP — within 0.2 log units, -0.0705
- RRIRLRPPRLPRPRPRPRNTPRP — within 0.2 log units, -0.0367
- RRIRGRPPRLPRPRPRPDHSPRP — within 0.2 log units, -0.0179
- RRIRIRPPRLPRPRPRPHAWPRP — within 0.2 log units, 0.0947
- RRIRGRPPRLPRPRPRPEDVPRP — within 0.2 log units, 0.157
- RRIRNRPPRLPRPRPRPDNEPRP — within 0.2 log units, 0.114
- RRIRVRPPRLPRPRPRPGKHPRP — lower, -0.391
- RRIRGRPPRLPRPRPRPQKYPRP — within 0.2 log units, -0.0606
- RRIRQRPPRLPRPRPRPLQNPRP — within 0.2 log units, 0.139
- RRIRKRPPRLPRPRPRPKEQPRP — within 0.2 log units, -0.0322
- RRIRPRPPRLPRPRPRPWHTPRP — within 0.2 log units, -0.087
- RRIRKRPPRLPRPRPRPINKPRP — lower, -0.328
- RRIRARPPRLPRPRPRPWCMPRP — within 0.2 log units, -0.223
- RRIRPRPPRLPRPRPRPWSTPRP — within 0.2 log units, -0.172
- RRIRYRPPRLPRPRPRPNEMPRP — within 0.2 log units, 0.0143
- RRIRFRPPRLPRPRPRPKPYPRP — within 0.2 log units, -0.109
- RRIRTRPPRLPRPRPRPQFRPRP — within 0.2 log units, -0.132
